# Tests used:
# [1] = system: T1, 6-TMR-NorFES-KGY-DER
# T1 sequence: DAIPXSIPKGY
# [2] = system: T2, 6-TMR-K-NorFES-KGY-DER
# T2 sequence: KDAIPXSIPKGY
# [3] = system: T3, 6-TMR-NorFES-KGY-6-TMR
# T3 sequence: DAIPXSIPKGY
# [4] = system: T4, DER-NorFES-KGY-DER
# T4 sequence: DAIPXSIPKGY
# [5] = system: T5, 6-TMR-K-NorFES-KGY-6-TMR
# T5 sequence: KDAIPXSIPKGY
# [6] = system: T6, Fl-NorFES-KGY-Fl (fluorescein-NorFES-fluorescein)
# T6 sequence: DAIPXSIPKGY
substance,measurement,setting,value
elastase,T1/2 (cleavage rate),[1],1.33 min
same,T1/2 (cleavage rate),[2],2.08 min
same,T1/2 (cleavage rate),[3],0.733 min
same,T1/2 (cleavage rate),[4],2.53 min
same,T1/2 (cleavage rate),[5],1.4 min
same,T1/2 (cleavage rate),[6],0.3 min
